Source: patent US20190152966A1 (INSTITUTE OF CANCER RESEARCH ROYAL CANCER HOSPITAL, published 2019)

Target: T1, Epidermal Growth Factor Receptor (EGFR) (human, UniProt P00533 25-1210)
T1 construct: whole, on cells; also called HER1; EGF receptor
Test: heading of the results section on rhMATN2 added to MDA-MB-231 cells

binding result: binds
B1: recombinant human MATN2 (rhMATN2) (ligand, UniProt O00339 24-956, looked up)
chain: RERSRGRSISRGRHARTHPQTALLESSCENKRADLVFIIDSSRSVNTHDYAKVKEFIVDILQFLDIGPDVTRVGLLQYGSTVKNEFSLKTFKRKSEVERAVKRMRHLSTGTMTGLAIQYALNIAFSEAEGARPLRENVPRVIMIVTDGRPQDSVAEVAAKARDTGILIFAIGVGQVDFNTLKSIGSEPHEDHVFLVANFSQIETLTSVFQKKLCTAHMCSTLEHNCAHFCINIPGSYVCRCKQGYILNSDQTTCRIQDLCAMEDHNCEQLCVNVPGSFVCQCYSGYALAEDGKRCVAVDYCASENHGCEHECVNADGSYLCQCHEGFALNPDKKTCTKIDYCASSNHGCQHECVNTDDSYSCHCLKGFTLNPDKKTCRRINYCALNKPGCEHECVNMEESYYCRCHRGYTLDPNGKTCSRVDHCAQQDHGCEQLCLNTEDSFVCQCSEGFLINEDLKTCSRVDYCLLSDHGCEYSCVNMDRSFACQCPEGHVLRSDGKTCAKLDSCALGDHGCEHSCVSSEDSFVCQCFEGYILREDGKTCRRKDVCQAIDHGCEHICVNSDDSYTCECLEGFRLAEDGKRCRRKDVCKSTHHGCEHICVNNGNSYICKCSEGFVLAEDGRRCKKCTEGPIDLVFVIDGSKSLGEENFEVVKQFVTGIIDSLTISPKAARVGLLQYSTQVHTEFTLRNFNSAKDMKKAVAHMKYMGKGSMTGLALKHMFERSFTQGEGARPLSTRVPRAAIVFTDGRAQDDVSEWASKAKANGITMYAVGVGKAIEEELQEIASEPTNKHLFYAEDFSTMDEISEKLKKGICEALEDSDGRQDSPAGELPKTVQQPTESEPVTINIQDLLSCSNFAVQHRYLFEEDNLLRSTQKLSHSTKPSGSPLEEKHDQCKCENLIMFQNLANEEVRKLTQRLEEMTQRMEALENRLRYR
notes: also called Matrilin2; human recombinant MATN2
